{"source": "patent US20240301041A1", "about": "(Regeneron, published 2024)", "key": {"IsdA.6xHis [1]": {"target": "T1, IsdA.6xHis (Staphylococcus aureus, UniProt A6QG31 47-316)", "T1 construct": "also called IsdA-6× His; IsdA.6×His", "T1 sequence": "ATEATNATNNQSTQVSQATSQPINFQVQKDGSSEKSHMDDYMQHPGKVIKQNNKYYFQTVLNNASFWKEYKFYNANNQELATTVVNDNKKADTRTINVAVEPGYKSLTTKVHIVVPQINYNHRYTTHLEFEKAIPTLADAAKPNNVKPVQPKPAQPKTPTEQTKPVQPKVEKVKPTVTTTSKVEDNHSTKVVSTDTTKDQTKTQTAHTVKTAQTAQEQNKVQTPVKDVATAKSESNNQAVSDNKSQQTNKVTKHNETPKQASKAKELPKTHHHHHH", "assay": "SPR (Biacore), mAb captured by anti-human Fc, IsdA.6xHis injected, 37 C", "method": "(§1) The equilibrium dissociation constants (KD) to Protein A and IsdA.6×His reagents binding to purified anti-IsdA*/* and anti-Protein A*/* monoclonal antibodies were determined using a real-time surface plasmon resonance based Biacore T200 or Biacore 4000 biosensor. All binding studies were performed in 10 mM HEPES, 150 mM NaCl, 3.4 mM EDTA and 0.05% v/v Tween-20, pH 7.4 (HBS-EP) running buffer at 25° C. and 37° C. […] Proteins were injected over the captured anti-IsdA*/* and anti-Protein A*/* monoclonal antibody surface for 3-3.5 minutes at a flow rate of 30-50 μL/minute, while the dissociation of monoclonal antibody bound IsdA.6×His and Protein A reagent was monitored for 5-10 minutes in HBS-EP running buffer. The association rate (ka) and dissociation rate (kd) were determined by fitting the real-time binding sensorgrams to a 1:1 binding model with mass transport limitation using Scrubber 2.0c curve-fitting software. Binding dissociation equilibrium constant (KD) and dissociative half-life (t½) were calculated from the kinetic rates as:"}, "IsdA.6xHis [2]": {"target": "T1, IsdA.6xHis", "assay": "SPR (Biacore), mAb captured by anti-human Fc, IsdA.6xHis injected, 25 C", "method": "as §1"}}}
{"binder": "H1xH20334P2*/* (anti-IsdA) (antibody, V domains shown, also called anti-IsdA*/* monoclonal antibody) VH: EVQLVESGGGLVQPGRSLRVSCAASGFTFDDYAMHWVRQIPGKGLEWVSGIRWNSDTIGYADSVKGRFTISRDNAKNFLYLQMNSLRTEDTALYYCVKDMRVRGIIMYGMDVWGQGTTVTVSS VL: not shown", "values": [{"measurement": "Kd", "setting": "IsdA.6xHis [1]", "result": 3.49, "unit": "nM"}, {"measurement": "koff", "setting": "IsdA.6xHis [1]", "result": 0.00167, "unit": "s⁻¹"}, {"measurement": "kon", "setting": "IsdA.6xHis [1]", "result": 479000, "unit": "M⁻¹ s⁻¹"}, {"measurement": "t½", "setting": "IsdA.6xHis [1]", "result": 7, "unit": "min"}, {"measurement": "Kd", "setting": "IsdA.6xHis [2]", "result": 1.28, "unit": "nM"}, {"measurement": "koff", "setting": "IsdA.6xHis [2]", "result": 0.000446, "unit": "s⁻¹"}, {"measurement": "kon", "setting": "IsdA.6xHis [2]", "result": 348000, "unit": "M⁻¹ s⁻¹"}, {"measurement": "t½", "setting": "IsdA.6xHis [2]", "result": 26, "unit": "min"}]}
